Patent US20040170630A1 (published 2004)

T1: recombinant heparanase 8 kDa/50 kDa heterodimer (baculovirus, insect cell expressed) (human, UniProt Q9Y251 36-109; Q9Y251 158-543)
T1 construct: domain: 8 kDa subunit;domain: 50 kDa subunit; Amplified from a mammary gland cDNA library; In one screening ELISA it was biotinylated; also called 8/50 heterodimer protein; purified recombinant heparanase
T1 sequence 1: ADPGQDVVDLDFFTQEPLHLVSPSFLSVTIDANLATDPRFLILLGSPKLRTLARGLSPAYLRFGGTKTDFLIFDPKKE
T1 sequence 2: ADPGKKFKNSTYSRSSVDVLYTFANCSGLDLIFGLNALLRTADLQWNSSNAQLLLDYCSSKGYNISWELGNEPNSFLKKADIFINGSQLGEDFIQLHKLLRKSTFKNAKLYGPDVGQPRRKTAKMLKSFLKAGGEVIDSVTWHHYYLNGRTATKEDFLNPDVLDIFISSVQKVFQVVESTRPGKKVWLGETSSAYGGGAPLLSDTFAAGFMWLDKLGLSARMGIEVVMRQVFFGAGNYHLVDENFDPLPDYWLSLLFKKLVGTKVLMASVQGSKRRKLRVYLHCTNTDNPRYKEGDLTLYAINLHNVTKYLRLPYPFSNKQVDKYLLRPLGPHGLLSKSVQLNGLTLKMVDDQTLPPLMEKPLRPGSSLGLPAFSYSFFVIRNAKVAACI


What was measured:
[1] = target: T1, recombinant heparanase 8 kDa/50 kDa …; assay: ELISA on coated recombinant heparanase and on biotin-heparanase captured by streptavidin; hybridoma supernatants
Procedure: To select KM mice producing antibodies that bound heparanase, sera from immunized mice was tested by ELISA as described by Fishwild, D. et al. (1996). Briefly, microtiter plates were coated with purified recombinant heparanase from baculovirus at 1-2 μg /ml in PBS, 50 μl/wells incubated 4° C. overnight then blocked with 200 μl/well of 5% chicken serum in PBS/Tween (0.05%). Dilutions of plasma from heparanase-immunized mice were added to each well and incubated for 1-2 hours at ambient temperature. The plates were washed with PBS/Tween and then incubated with a goat-anti-human IgG Fc polyclonal antibody conjugated with horseradish peroxidase (HRP) for 1 hour at room temperature. After washing, the plates were developed with ABTS substrate (Sigma, A-1 888, 0.22 mg/ml) and analyzed by spectrophotometer at OD 415-495. Mice that developed the highest titers of anti-heparanase antibodies were used for fusions. Fusions were performed as described above and hybridoma supernatants were tested for anti-heparanase activity by ELISA. In order to select antibodies that bind to heparanase enzyme, an ELISA assay as described above and a biotinylated ELISA as described above with following modifications were applied. Briefly, ELISA plates were coated with streptavidin (Sigma catalog number: S-4762) at 1 μg/ml in PBS, 50 ul/well. After overnight incubation at 4° C., the plates were blocked with 200 μl/well of 5% chicken serum in PBS/Tween (0.05%). The plates were then washed with PBS/Tween three times. Biotin-heparanase was added to the plates at 1 μg/ml in PBS, 50 ul/well and then incubated for 1 hour at room temperature. 50 ul/well of the supernatants were then added to the plates and incubated for 1-2 hours at room temperature. The rest of the procedures were exactly the same as described above. Hybridomas secreting a monoclonal antibody that bound with high avidity to heparanase were selected for further characterization for enzymatic, motility and angiogenesis activities.

[2] = target: T1, recombinant heparanase 8 kDa/50 kDa …; assay: competition binding format

Binder | binding result [1] | binding result [2]
human monoclonal antibody 5G10 (antibody, V domains shown, Human IgG kappa from a KM mouse hybridoma; subclass not reported) VH: QVQLVQSGAEVKKPGASVKVSCKVSGYTLTELSMHWVRQAPGKGLEWMGGFDPEDGETIYAQKFQGRVTMTEDTSTDTAYMELSSLRSEDTAVYYCATESLVRYFDWLSHFDYWGQGTLVTVSS VL: DIQMTQSPSSLSASVGDRVTITCRASQGISSWLAWYQQKPEKAPKSLIYAASSLQSGVPSRFSGSGSGTDFTLTISSLQPEDFATYYCQQYNSYPYTFGQGTKLEIK | binds | –
human monoclonal antibody 13B2 (antibody, V domains shown, Human IgG kappa from a KM mouse hybridoma; subclass not reported) VH: EVQLVESGGGLVQPGGSLRLSCAASGFTFSSYWMSWVRQAPGKGLEWVASIYQDGSEKYYVDSVKGRFTISRDNAKNSLYLQMNSLRAEDTAMYYCARELDWGWDYWGQGTLVTVSS VL: AIQLTQSPSSLSASVGDRVTITCRASQGISSALAWYQQKPGKAPKLLIYDASSLESGVPSRFSGSGSGTDFTLTISSLQPEDFATYYCQQFNSYPITFGQGTRLEIK | binds | –
human monoclonal antibody 2H8 (antibody, V domains shown, Human IgG kappa from a KM mouse hybridoma; subclass not reported) VH: QVQLVQSGAEVKKPGASVKVSCKVSGYTLTELSMHWVRQAPGKGLEWMGGFDPEDGETIYAQKFQDRVTMTEDTSTDTAYMELSSLRSEDTAVYYCTTESLVRYFDWLSHFDYWGQGTLVTVSS VL: DIQMTQSPSSLSASVGDRVTITCRASQGISSWLAWYQQKPEKAPKSLIYAASSLQSGVPSRFSGSGSGTDFTLTISSLQPEDFATYYCQQYNSYPYTFGQGTKLEIK | binds | –

Now from value to binder:

binding result [1] | binding result [2] | Binder
binds | – | human monoclonal antibody 1E7 (antibody, V domains shown, Human IgG kappa from a KM mouse hybridoma; subclass not reported) VH: EVQLVESGGGLVQPGGSLRLSCAASGFTFSSYWMSWVRQAPGKGLEWVASIYQDGSEKYYVDSVKGRFTISRDNAKNSLYLQMNSLRAEDTAVYYCARELDWGWDYWGQGTLVTVSS VL: AIQLTQSPSSLSASVGDRVTITCRASQGISSALAWYQQKPGKAPKLLIYDASSLESGVPSRFSGSGSGTDFTLTISSLQPEDFATYYCQQFNSYPITFGQGTRLEIK
– | binds | human monoclonal antibody 22D9 (antibody, V domains shown, Fully human IgG with kappa light chain from a KM mouse hybridoma, purified by Protein A) VH: QVQLVQSGAEVKKPGASVKVSCKVSGYTLTELSMHWVRQAPGKGLEWMGGFDPEDGETIYAQKFQGRVTMTEDTSTDTAYMELSSLRSDDTAVYYCATESLVRYFDWLSHFDYWGQGTLVTVSS VL: DIQMTQSPSSLSASVGDRVTITCRASQGISSWLAWYQQKPEKAPKSLIYAASSLQSGVPSRFSGSGSGTDFTLTISSLQPEDFATYYCQQYNSYPYTFGQGTKLEIK
